The results in this text go back to patent US20190309034A1 (Boehringer Ingelheim, published 2019).

A value given as a limit tells only on which side of the number the result lay.

Assay [1] concerns the target T1, Recombinant soluble trimeric human BAFF (furin-cleaved human BAFF 134-285) (human, UniProt Q9Y275 134-285). The experiment in a line: cell-based or functional assay.
Assay [2] concerns the target T2, Recombinant soluble 60-mer human BAFF (His-HuBAFF 134-285) (human, UniProt Q9Y275 134-285). The experiment in a line: cell-based or functional assay.
Assay [3] deals with T3, Human membrane-bound BAFF (mbBAFF) (human, UniProt Q9Y275 1-285). The experiment in a line: cell-based or functional assay.
The target in assay [4] is T1, Recombinant soluble trimeric human BAFF …. Briefly: cell-based or functional assay. The source holds these as a separate data set.
Assay [5] shares this target. Briefly: cell-based or functional assay. The source holds these as a separate data set.
For assay [6], the target named is T2, Recombinant soluble 60-mer human BAFF …. The experiment in a line: cell-based or functional assay. The source holds these as a separate data set.
Assay [7] has as its target T3, Human membrane-bound BAFF (mbBAFF). Briefly: cell-based or functional assay. The source holds these as a separate data set.
Assay [8] has as its target T1, Recombinant soluble trimeric human BAFF …. Briefly: SPR, antibody captured on Protein A/G, soluble trimeric BAFF flowed over, 1:1 Langmuir global fit, apparent affinity (at detection limit). As to the method: (§1) Apparent binding affinities were evaluated using surface plasmon resonance where the antibodies were captured at different surface densities on a Protein A/G surface. Soluble trimeric BAFF at different concentrations were flowed over the captured antibody. Clinical reference antibodies (Reference 1 comprising SEQ ID NOS: 98 and 116) and Reference 2 comprising SEQ ID NOS: 99 and 117) were used as comparators.

For assay [9] the target is unchanged. The experiment in a line: SPR, antibody captured on Protein A/G, soluble trimeric BAFF flowed over, 1:1 Langmuir global fit, apparent affinity. On the procedure:
as §1
Background: Surface plasmon resonance follows binding to a sensor surface in real time, without labels.

B1: Reference 1 (antibody, human IgG4 S228P, kappa, V domains shown)
VH: QVQLQQWGAGLLKPSETLSLTCAVYGGSFSGYYWSWIRQPPGKGLEWIGEINHSGSTNYNPSLKSRVTISVDTSKNQFSLKLSSVTAADTAVYYCARGYYDILTGYYYYFDYWGQGTLVTVSS
VL: EIVLTQSPATLSLSPGERATLSCRASQSVSRYLAWYQQKPGQAPRLLIYDASNRATGIPARFSGSGSGTDSTLTISSLEPEDFAVYYCQQRSNWPRTFGQGTKVEIKR
notes: Comparator anti-BAFF antibody
B1: in assay [1], the “Soluble trimeric huBAFF (50 pM) Neutralization IC90” value worked out at 290 pM. In [2], the “Soluble 60-mer huBAFF (4 pM) Neutralization IC50” value was 40 pM and the “Soluble 60-mer huBAFF (4 pM) Neutralization IC90” value came to 102 pM. In addition, in assay [3], the “Potent mbBAFF Neutralization IC50” value was determined as 177 pM and the “Potent mbBAFF Neutralization IC90” value was 1050 pM. In addition, the “IC50 (neutralisation of soluble trimeric huBAFF activation of human BAFFR, luciferase reporter CHO cells)” value in [4] was found to be 120 pM. Also, the “Soluble trimeric huBAFF (52 pM) Neutralization IC90” value in assay [5] was 290 pM. Also, the “Soluble 60-mer huBAFF (4.2 pM) Neutralization IC90” value in assay [6] amounted to 21 pM. The “IC50 (neutralisation of mbBAFF activation of human BAFFR, fixed mbBAFF-CHO mixed with luciferase reporter BAFFR-CHO cells)” value in assay [7] was 210 pM. For the same molecule, the Kd in [8] is less than 10 pM.

B2: Reference 2 (antibody, human IgG1, lambda, V domains shown)
VH: QVQLQQSGAEVKKPGSSVRVSCKASGGTFNNNAINWVRQAPGQGLEWMGGIIPMFGTAKYSQNFQGRVAITADESTGTASMELSSLRSEDTAVYYCARSRDLLLFPHHALSPWGRGTMVTVSS
VL: SSELTQDPAVSVALGQTVRVTCQGDSLRSYYASWYQQKPGQAPVLVIYGKNNRPSGIPDRFSGSSSGNTASLTITGAQAEDEADYYCSSRDSSGNHWVFGGGTELTVLG
notes: Comparator anti-BAFF antibody
Consider B2, for which the “Soluble trimeric huBAFF (50 pM) Neutralization IC90” value in assay [1] was 1000 pM. Besides, in [2], the “Soluble 60-mer huBAFF (4 pM) Neutralization IC50” value was 38300 pM and the “Soluble 60-mer huBAFF (4 pM) Neutralization IC90” value was 198000 pM. Also, in assay [3], the “Potent mbBAFF Neutralization IC50” value was found to be 2180 pM and the “Potent mbBAFF Neutralization IC90” value was found to be 151000 pM. Besides, the “IC50 (neutralisation of soluble trimeric huBAFF activation of human BAFFR, luciferase reporter CHO cells)” value in assay [4] was found to be 220 pM. Moreover, the “Soluble trimeric huBAFF (52 pM) Neutralization IC90” value in assay [5] was 1000 pM. The “IC50 (neutralisation of mbBAFF activation of human BAFFR, fixed mbBAFF-CHO mixed with luciferase reporter BAFFR-CHO cells)” value in assay [7] is 8600 pM. For the same molecule, the Kd in assay [9] came out at 22.2 pM.
